The supplement of paper PMC9112550, “Optimization of the antimicrobial peptide Bac7 by deep mutational scanning” (BMC Biology, 2022)
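Note: peptides expressed intracellularly from a pBAD plasmid library in pooled LB shake-flask culture, induced with 0.3% L-arabinose, DNA abundance read by NGS, three biological replicates, DESeq2 with apeglm shrinkage.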

Each sequence was assayed on Escherichia coli TOP10 (assay: shrunken log2 fold change of peptide-encoding DNA abundance (4.5 h post-induction vs induction); higher = less antimicrobial activity (less host growth inhibition)). Details: time post-induction: 4.5 h; library: site-saturation at positions 5, 18, 19, 20.
In the case of RRIRDRPPRLPRPRPRPEWNPRP, the “shrunken log2 fold change” value is reported as 0.546. With RRIRVRPPRLPRPRPRPMRFPRP the “shrunken log2 fold change” value was 0.48. In the case of RRIRRRPPRLPRPRPRPRNFPRP, the “shrunken log2 fold change” value is reported as 0.306. RRIRERPPRLPRPRPRPEATPRP was tested, and the “shrunken log2 fold change” value was 0.18. With RRIRPRPPRLPRPRPRPYWYPRP the “shrunken log2 fold change” value was -0.958. With RRIRSRPPRLPRPRPRPSQDPRP the “shrunken log2 fold change” value was -0.296. RRIRNRPPRLPRPRPRPKWPPRP was tested, and the “shrunken log2 fold change” value was 0.208. With RRIRFRPPRLPRPRPRPTIWPRP the “shrunken log2 fold change” value was -0.000248. For RRIRDRPPRLPRPRPRPPETPRP, the “shrunken log2 fold change” value was 0.743. In the case of RRIRMRPPRLPRPRPRPFCRPRP, the “shrunken log2 fold change” value is reported as 0.315. For RRIRERPPRLPRPRPRPKRLPRP, the “shrunken log2 fold change” value was 0.0323. In the case of RRIRRRPPRLPRPRPRPNPLPRP, the “shrunken log2 fold change” value is reported as 0.269. RRIRTRPPRLPRPRPRPLNRPRP was tested, and the “shrunken log2 fold change” value was -0.173. With RRIRRRPPRLPRPRPRPFWDPRP the “shrunken log2 fold change” value was -0.0897. RRIRPRPPRLPRPRPRPLTEPRP was tested, and the “shrunken log2 fold change” value was 0.0389. RRIRLRPPRLPRPRPRPMHHPRP was tested, and the “shrunken log2 fold change” value was 0.0581. In the case of RRIRWRPPRLPRPRPRPMWPPRP, the “shrunken log2 fold change” value is reported as 0.214. In the case of RRIRCRPPRLPRPRPRPSKWPRP, the “shrunken log2 fold change” value is reported as -0.0391. In the case of RRIRARPPRLPRPRPRPFQAPRP, the “shrunken log2 fold change” value is reported as 0.0111. RRIRARPPRLPRPRPRPLNGPRP was tested, and the “shrunken log2 fold change” value was 0.0986. For RRIRGRPPRLPRPRPRPLSPPRP, the “shrunken log2 fold change” value was 0.435. RRIRGRPPRLPRPRPRPTMQPRP was tested, and the “shrunken log2 fold change” value was 0.907. With RRIRKRPPRLPRPRPRPLWFPRP the “shrunken log2 fold change” value was 0.107. In the case of RRIRWRPPRLPRPRPRPATMPRP, the “shrunken log2 fold change” value is reported as 0.0187. With RRIRMRPPRLPRPRPRPHPWPRP the “shrunken log2 fold change” value was 0.227. With RRIRIRPPRLPRPRPRPQHAPRP the “shrunken log2 fold change” value was 0.16. In the case of RRIRARPPRLPRPRPRPIYNPRP, the “shrunken log2 fold change” value is reported as -0.668. With RRIRFRPPRLPRPRPRPFIPPRP the “shrunken log2 fold change” value was -0.823. With RRIRGRPPRLPRPRPRPWTFPRP the “shrunken log2 fold change” value was -0.00633. In the case of RRIRLRPPRLPRPRPRPLMVPRP, the “shrunken log2 fold change” value is reported as -0.326. For RRIRNRPPRLPRPRPRPPNKPRP, the “shrunken log2 fold change” value was 0.125. For RRIRWRPPRLPRPRPRPVDCPRP, the “shrunken log2 fold change” value was 0.00927. For RRIRRRPPRLPRPRPRPHSFPRP, the “shrunken log2 fold change” value was 0.199. In the case of RRIRKRPPRLPRPRPRPYQCPRP, the “shrunken log2 fold change” value is reported as -0.0062. With RRIRDRPPRLPRPRPRPTESPRP the “shrunken log2 fold change” value was -0.00177. With RRIRDRPPRLPRPRPRPHDNPRP the “shrunken log2 fold change” value was -0.323. For RRIRDRPPRLPRPRPRPLWQPRP, the “shrunken log2 fold change” value was 0.316. RRIRSRPPRLPRPRPRPSQWPRP was tested, and the “shrunken log2 fold change” value was -0.176. RRIRSRPPRLPRPRPRPASHPRP was tested, and the “shrunken log2 fold change” value was -0.167. RRIRYRPPRLPRPRPRPPLHPRP was tested, and the “shrunken log2 fold change” value was -0.455. RRIRFRPPRLPRPRPRPFEPPRP was tested, and the “shrunken log2 fold change” value was -0.0506. For RRIRDRPPRLPRPRPRPAPQPRP, the “shrunken log2 fold change” value was 0.983. With RRIRWRPPRLPRPRPRPKRRPRP the “shrunken log2 fold change” value was 0.0884. For RRIRMRPPRLPRPRPRPLVIPRP, the “shrunken log2 fold change” value was -0.13. RRIRSRPPRLPRPRPRPEMAPRP was tested, and the “shrunken log2 fold change” value was 1.22. For RRIRPRPPRLPRPRPRPRRDPRP, the “shrunken log2 fold change” value was 0.302. In the case of RRIRDRPPRLPRPRPRPEKWPRP, the “shrunken log2 fold change” value is reported as -0.00325. In the case of RRIRMRPPRLPRPRPRPLHWPRP, the “shrunken log2 fold change” value is reported as 0.116. With RRIRLRPPRLPRPRPRPVRRPRP the “shrunken log2 fold change” value was 0.276. RRIRQRPPRLPRPRPRPQAEPRP was tested, and the “shrunken log2 fold change” value was 4.1. In the case of RRIRRRPPRLPRPRPRPHEKPRP, the “shrunken log2 fold change” value is reported as 0.0358. For RRIRSRPPRLPRPRPRPCAPPRP, the “shrunken log2 fold change” value was 0.0418. In the case of RRIRQRPPRLPRPRPRPLLIPRP, the “shrunken log2 fold change” value is reported as -0.141. With RRIRGRPPRLPRPRPRPERGPRP the “shrunken log2 fold change” value was 1.72. In the case of RRIRVRPPRLPRPRPRPAGRPRP, the “shrunken log2 fold change” value is reported as 1.22. For RRIRDRPPRLPRPRPRPEIQPRP, the “shrunken log2 fold change” value was 0.7. RRIRQRPPRLPRPRPRPHDIPRP was tested, and the “shrunken log2 fold change” value was 0.0769. With RRIRMRPPRLPRPRPRPMWQPRP the “shrunken log2 fold change” value was 0.188. With RRIRARPPRLPRPRPRPLSFPRP the “shrunken log2 fold change” value was 0.0158. RRIRYRPPRLPRPRPRPDQDPRP was tested, and the “shrunken log2 fold change” value was -0.0701. RRIRNRPPRLPRPRPRPIHAPRP was tested, and the “shrunken log2 fold change” value was -0.0866. In the case of RRIRWRPPRLPRPRPRPIYSPRP, the “shrunken log2 fold change” value is reported as -0.0292. For RRIRHRPPRLPRPRPRPIAFPRP, the “shrunken log2 fold change” value was -0.362. In the case of RRIRLRPPRLPRPRPRPTTKPRP, the “shrunken log2 fold change” value is reported as 0.155. For RRIRFRPPRLPRPRPRPDHTPRP, the “shrunken log2 fold change” value was -0.318. For RRIRFRPPRLPRPRPRPMLEPRP, the “shrunken log2 fold change” value was 0.147. For RRIRWRPPRLPRPRPRPNKTPRP, the “shrunken log2 fold change” value was 0.0629. In the case of RRIRDRPPRLPRPRPRPAARPRP, the “shrunken log2 fold change” value is reported as 0.518. For RRIRDRPPRLPRPRPRPIQLPRP, the “shrunken log2 fold change” value was 0.0401. With RRIRCRPPRLPRPRPRPANRPRP the “shrunken log2 fold change” value was 0.127. In the case of RRIRVRPPRLPRPRPRPFDCPRP, the “shrunken log2 fold change” value is reported as -0.0718. For RRIRNRPPRLPRPRPRPSRQPRP, the “shrunken log2 fold change” value was 0.0744. For RRIRIRPPRLPRPRPRPDNKPRP, the “shrunken log2 fold change” value was -0.703. With RRIRYRPPRLPRPRPRPWVMPRP the “shrunken log2 fold change” value was -0.195. With RRIRVRPPRLPRPRPRPPEDPRP the “shrunken log2 fold change” value was 0.425.
